Test results as given in patent US20180105596A1 (ELSALYS BIOTECH, published 2018).
Residue numbers refer to the chain shown, from its start. One block for each binder: values may come before it.

Experiments:
[1] = biological target: T1, immunoglobulin-like domain Ig-2 of human Tyro3 (human, UniProt Q06418 139-220); test: double sandwich ELISA on captured fragments of hTyro3 ECD
T1 construct: No fragment of Ig-2 alone was made
T1 sequence: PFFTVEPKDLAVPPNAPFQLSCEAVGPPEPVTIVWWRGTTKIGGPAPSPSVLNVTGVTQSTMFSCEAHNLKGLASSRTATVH

[2] = biological target: T2, extracellular domain of human Axl, Fc fusion (R&D Systems 154-AL-100) (human, UniProt P30530 26-451); test: ELISA, ECD coated 1 µg/well, scFv 1 µg/mL, anti-tag-HRP
T2 construct: Bought protein; also called hAxl; hAXL; not shown: Fc of the bought ECD-Fc fusion
T2 sequence: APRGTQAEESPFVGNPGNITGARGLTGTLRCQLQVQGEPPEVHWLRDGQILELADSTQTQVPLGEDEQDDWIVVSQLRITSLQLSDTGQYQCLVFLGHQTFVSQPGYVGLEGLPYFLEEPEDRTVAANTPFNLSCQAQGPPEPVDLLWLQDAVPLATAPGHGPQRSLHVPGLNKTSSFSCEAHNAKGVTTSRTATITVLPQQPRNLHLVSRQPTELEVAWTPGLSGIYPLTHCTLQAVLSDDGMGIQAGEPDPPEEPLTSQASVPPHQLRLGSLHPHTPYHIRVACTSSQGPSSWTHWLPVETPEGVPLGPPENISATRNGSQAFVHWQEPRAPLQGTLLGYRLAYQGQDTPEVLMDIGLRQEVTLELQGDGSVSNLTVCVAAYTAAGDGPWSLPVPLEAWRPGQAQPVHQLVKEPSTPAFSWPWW
Procedure: (§1) Extracellular domains of hTyro 3 (859-DK-100), hAxl (154-AL-100) or hMer (891-MR-100) from R&D Systems were coated onto 96-wells microtiter plates (1 μg/well) in PBS and incubated overnight at 4° C. Plates were washed three times with PBS and blocked in PBS/3% BSA for 1 hour at RT. Plates were washed as above and scFvs were added at 1 μg/mL (diluted in PBS) and incubated for 1 hour at RT. Plates were washed three times with PBST (PBS/0.01% Tween-20) and secondary antibody anti-FLAG-HRP was added (Abcam, ab49763, 1/5000 dilution in blocking buffer) for 1 hour at RT. Plates were washed as above with PBST and signal was developed with Ultra-TMB reagent (Thermo Scientific, 34028).

[3] = biological target: T3, extracellular domain of human Mer, Fc fusion (R&D Systems 891-MR-100) (human, UniProt Q12866 21-505); test: as above
T3 construct: Bought protein; also called hMer; hMER; not shown: Fc of the bought ECD-Fc fusion
T3 sequence: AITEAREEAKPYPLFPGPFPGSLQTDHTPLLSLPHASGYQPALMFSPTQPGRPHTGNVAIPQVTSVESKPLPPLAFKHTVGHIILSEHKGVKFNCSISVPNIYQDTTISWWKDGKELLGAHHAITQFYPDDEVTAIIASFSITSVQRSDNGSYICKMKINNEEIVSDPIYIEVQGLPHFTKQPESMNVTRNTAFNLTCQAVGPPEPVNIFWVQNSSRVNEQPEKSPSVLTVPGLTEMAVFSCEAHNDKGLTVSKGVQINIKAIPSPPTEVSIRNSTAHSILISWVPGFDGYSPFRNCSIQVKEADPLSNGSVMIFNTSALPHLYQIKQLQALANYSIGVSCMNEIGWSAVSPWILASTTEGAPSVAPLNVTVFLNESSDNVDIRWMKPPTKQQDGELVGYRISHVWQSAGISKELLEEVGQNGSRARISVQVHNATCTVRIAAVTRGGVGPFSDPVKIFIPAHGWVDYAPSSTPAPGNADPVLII
Procedure: as §1

[4] = biological target: T4, hTyro 3-ECD; test: as above
T4 construct: not the His-Strep tagged ECD m13; also called Recombinant Human Dtk-Fc Chimera (R&D Systems 859-DK-100); not shown: Human Fc, and any linker, of the commercial chimera (R&D Systems 859-DK-100)
T4 chain: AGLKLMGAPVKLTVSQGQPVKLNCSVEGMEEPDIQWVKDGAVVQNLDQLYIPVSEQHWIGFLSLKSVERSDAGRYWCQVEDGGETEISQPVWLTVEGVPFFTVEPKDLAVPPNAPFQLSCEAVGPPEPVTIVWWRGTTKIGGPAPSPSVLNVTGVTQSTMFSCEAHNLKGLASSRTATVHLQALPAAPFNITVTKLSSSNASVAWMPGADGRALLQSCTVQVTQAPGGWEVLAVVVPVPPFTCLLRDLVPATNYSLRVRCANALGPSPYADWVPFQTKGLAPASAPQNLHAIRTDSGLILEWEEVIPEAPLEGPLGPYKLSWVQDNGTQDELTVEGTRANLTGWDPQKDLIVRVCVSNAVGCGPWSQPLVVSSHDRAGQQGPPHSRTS
Procedure: as §1

[5] = biological target: T5, recombinant His-Strep tagged human Tyro3 extracellular domain (human, UniProt Q06418 41-429); test: sandwich ELISA, Strep-tagged fragment captured on StrepMAB plate, scFv 10 µg/mL (Table 17), anti-FLAG-HRP
T5 construct: also called hTyro3 ECD; full Tyro3 ECD
T5 sequence: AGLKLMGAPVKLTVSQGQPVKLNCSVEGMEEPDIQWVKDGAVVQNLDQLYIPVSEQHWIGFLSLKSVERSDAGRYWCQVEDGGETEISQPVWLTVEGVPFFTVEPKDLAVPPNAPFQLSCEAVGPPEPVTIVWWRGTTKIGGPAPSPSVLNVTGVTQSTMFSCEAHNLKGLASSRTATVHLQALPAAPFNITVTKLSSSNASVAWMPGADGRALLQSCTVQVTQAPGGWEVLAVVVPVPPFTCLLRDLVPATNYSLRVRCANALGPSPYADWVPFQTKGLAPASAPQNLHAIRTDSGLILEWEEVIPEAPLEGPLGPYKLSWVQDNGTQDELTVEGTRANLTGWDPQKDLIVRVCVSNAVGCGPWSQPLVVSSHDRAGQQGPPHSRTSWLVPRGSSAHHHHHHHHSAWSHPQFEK

- binding result [1]: no binding (tested: 10 µg/mL)
- binding result [2]: no binding (tested: 1 µg/mL)
- binding result [3]: no binding (tested: 1 µg/mL)
B4: anti-Tyro3 scFv 2717 (scFv, V domains shown)
VH: EVQLVQSGADVKKPGASLTISCQASGYTFTDYWISWVRQKPGKGLEWMGEIFLPPSTTVYGPSFQGHVTISADRSTATAYLQWRSLEASDTAMYYCVRQTRLTSGGTIPEYYQHWGPGTLVTVSS
VL: SYELTQPPSVSVSPGQTARITCSGDALPKKYAYWYQQKSGQAPVLVIYEDNKRGSGIPERFSGSSSGTMATLTISGAQVEDEADYYCYSKSPEGNYMVFGGGTKLTVL
notes: Tested as a single-chain Fv made in E. coli

- binding result [2]: no binding (tested: 1 µg/mL)
- binding result [3]: no binding (tested: 1 µg/mL)
- binding result [4]: binds
B5: anti-Tyro3 scFv 2412 (scFv, V domains shown)
VH: EVQLVQSGADVKKPGASLTISCQASGYTFTDYWISWVRQKPGKGLEWMGRIRPLLSHTMYGPSFQGHVTISADRSTATAYLQWRSLEASDTAMYYCVRSWLATSGGTIPEYYQHWGPGTLVTVSS
VL: B4 VL with N51A, G54V, K90A, P92A, E93N, M97R
notes: as for B4

- binding result [2]: no binding (tested: 1 µg/mL)
- binding result [3]: no binding (tested: 1 µg/mL)
- binding result [4]: binds
B7: anti-Tyro3 scFv 2711 (scFv, V domains shown)
VH: B5 VH with R50Q, P53G, L54Q, L55H, H57S, M59L, S99H, W100G, L101A, A102S
VL: B4 VL with N51A, G54S, K90L, P92D, E93S, M97F
notes: as for B4

- binding result [1]: no binding (tested: 10 µg/mL)
- binding result [2]: no binding (tested: 1 µg/mL)
- binding result [3]: no binding (tested: 1 µg/mL)
- binding result [4]: binds
B8: anti-Tyro3 scFv 2410 (scFv, V domains shown)
VH: B5 VH with R50Q, R52V, L54R, L55A, H57R, M59N, S99P, W100Y, L101F, A102Q
VL: B4 VL with N51E, G54A, K90Q, S91E, P92R, E93N, M97A
notes: as for B4

More lines, now with the values behind:

B1: anti-Tyro3 scFv 2414 (scFv, V domains shown)
VH: B5 VH with R50Q, R52N, P53R, L54H, L55A, H57N, W100G, L101G
VL: B4 VL with N51W, G54A, K90Q, S91E, P92R, E93K, M97F
notes: as for B4
- binding result [1]: no binding (tested: 10 µg/mL)
- binding result [2]: no binding (tested: 1 µg/mL)
- binding result [3]: no binding (tested: 1 µg/mL)
- binding result [4]: binds

B2: anti-Tyro3 scFv 2713 (scFv, V domains shown)
VH: B5 VH with R52S, P53R, L54H, L55G, H57Q, M59Y, S99A, W100G, L101G, A102Q
VL: B4 VL with N51H, G54A, K90I, E93A, M97G
notes: as for B4
- binding result [2]: no binding (tested: 1 µg/mL)
- binding result [3]: no binding (tested: 1 µg/mL)
- binding result [4]: binds

B3: anti-Tyro3 scFv 2415 (scFv, V domains shown)
VH: B4 VH with E50Q, F52R, L53G, P55A, T57A, V59H, Q99H, T100Q, R101Q, L102Q
VL: B4 VL with N51K, G54I, K90T, P92T, E93G
notes: as for B4
- binding result [2]: no binding (tested: 1 µg/mL)
- binding result [3]: no binding (tested: 1 µg/mL)
- binding result [4]: binds

B6: anti-Tyro3 scFv 2709 (scFv, V domains shown)
VH: B4 VH with E50A, F52S, L53R, P54N, P55G, V59Y, Q99S, T100G, R101G, T122P
VL: B4 VL with N51K, G54V, K90L, S91A, P92V, E93D, M97G
notes: as for B4
- binding result [5]: binds
- binding result [1]: no binding (tested: 10 µg/mL)
- binding result [2]: no binding (tested: 1 µg/mL)
- binding result [3]: no binding (tested: 1 µg/mL)
- binding result [4]: binds
